This is an account of results in IntAct's records for PubMed 22792074.

B1: Fanconi anemia group J protein (Homo sapiens), Q9BX63 (parent)
chain: MSSMWSEYTIGGVKIYFPYKAYPSQLAMMNSILRGLNSKQHCLLESPTGSGKSLALLCSALAWQQSLSGKPADEGVSEKAEVQLSCCCACHSKDFTNNDMNQGTSRHFNYPSTPPSERNGTSSTCQDSPEKTTLAAKLSAKKQASIYRDENDDFQVEKKRIRPLETTQQIRKRHCFGTEVHNLDAKVDSGKTVKLNSPLEKINSFSPQKPPGHCSRCCCSTKQGNSQESSNTIKKDHTGKSKIPKIYFGTRTHKQIAQITRELRRTAYSGVPMTILSSRDHTCVHPEVVGNFNRNEKCMELLDGKNGKSCYFYHGVHKISDQHTLQTFQGMCKAWDIEELVSLGKKLKACPYYTARELIQDADIIFCPYNYLLDAQIRESMDLNLKEQVVILDEAHNIEDCARESASYSVTEVQLRFARDELDSMVNNNIRKKDHEPLRAVCCSLINWLEANAEYLVERDYESACKIWSGNEMLLTLHKMGITTATFPILQGHFSAVLQKEEKISPIYGKEEAREVPVISASTQIMLKGLFMVLDYLFRQNSRFADDYKIAIQQTYSWTNQIDISDKNGLLVLPKNKKRSRQKTAVHVLNFWCLNPAVAFSDINGKVQTIVLTSGTLSPMKSFSSELGVTFTIQLEANHIIKNSQVWVGTIGSGPKGRNLCATFQNTETFEFQDEVGALLLSVCQTVSQGILCFLPSYKLLEKLKERWLSTGLWHNLELVKTVIVEPQGGEKTNFDELLQVYYDAIKYKGEKDGALLVAVCRGKVSEGLDFSDDNARAVITIGIPFPNVKDLQVELKRQYNDHHSKLRGLLPGRQWYEIQAYRALNQALGRCIRHRNDWGALILVDDRFRNNPSRYISGLSKWVRQQIQHHSTFESALESLAEFSKKHQKVLNVSIKDRTNIQDNESTLEVTSLKYSTSPYLLEAASHLSPENFVEDEAKICVQELQCPKIITKNSPLPSSIISRKEKNDPVFLEEAGKAEKIVISRSTSPTFNKQTKRVSWSSFNSLGQYFTGKIPKATPELGSSENSASSPPRFKTEKMESKTVLPFTDKCESSNLTVNTSFGSCPQSETIISSLKIDATLTRKNHSEHPLCSEEALDPDIELSLVSEEDKQSTSNRDFETEAEDESIYFTPELYDPEDTDEEKNDLAETDRGNRLANNSDCILAKDLFEIRTIKEVDSAREVKAEDCIDTKLNGILHIEESKIDDIDGNVKTTWINELELGKTHEIEIKNFKPSPSKNKGMFPGFK

The variants in this experiment derive from B1. The conditions noted are these: with brca1_human BRCA1, P38398.
brca1_human BRCA1, P38398, sequence (P38398 whole entry, looked up): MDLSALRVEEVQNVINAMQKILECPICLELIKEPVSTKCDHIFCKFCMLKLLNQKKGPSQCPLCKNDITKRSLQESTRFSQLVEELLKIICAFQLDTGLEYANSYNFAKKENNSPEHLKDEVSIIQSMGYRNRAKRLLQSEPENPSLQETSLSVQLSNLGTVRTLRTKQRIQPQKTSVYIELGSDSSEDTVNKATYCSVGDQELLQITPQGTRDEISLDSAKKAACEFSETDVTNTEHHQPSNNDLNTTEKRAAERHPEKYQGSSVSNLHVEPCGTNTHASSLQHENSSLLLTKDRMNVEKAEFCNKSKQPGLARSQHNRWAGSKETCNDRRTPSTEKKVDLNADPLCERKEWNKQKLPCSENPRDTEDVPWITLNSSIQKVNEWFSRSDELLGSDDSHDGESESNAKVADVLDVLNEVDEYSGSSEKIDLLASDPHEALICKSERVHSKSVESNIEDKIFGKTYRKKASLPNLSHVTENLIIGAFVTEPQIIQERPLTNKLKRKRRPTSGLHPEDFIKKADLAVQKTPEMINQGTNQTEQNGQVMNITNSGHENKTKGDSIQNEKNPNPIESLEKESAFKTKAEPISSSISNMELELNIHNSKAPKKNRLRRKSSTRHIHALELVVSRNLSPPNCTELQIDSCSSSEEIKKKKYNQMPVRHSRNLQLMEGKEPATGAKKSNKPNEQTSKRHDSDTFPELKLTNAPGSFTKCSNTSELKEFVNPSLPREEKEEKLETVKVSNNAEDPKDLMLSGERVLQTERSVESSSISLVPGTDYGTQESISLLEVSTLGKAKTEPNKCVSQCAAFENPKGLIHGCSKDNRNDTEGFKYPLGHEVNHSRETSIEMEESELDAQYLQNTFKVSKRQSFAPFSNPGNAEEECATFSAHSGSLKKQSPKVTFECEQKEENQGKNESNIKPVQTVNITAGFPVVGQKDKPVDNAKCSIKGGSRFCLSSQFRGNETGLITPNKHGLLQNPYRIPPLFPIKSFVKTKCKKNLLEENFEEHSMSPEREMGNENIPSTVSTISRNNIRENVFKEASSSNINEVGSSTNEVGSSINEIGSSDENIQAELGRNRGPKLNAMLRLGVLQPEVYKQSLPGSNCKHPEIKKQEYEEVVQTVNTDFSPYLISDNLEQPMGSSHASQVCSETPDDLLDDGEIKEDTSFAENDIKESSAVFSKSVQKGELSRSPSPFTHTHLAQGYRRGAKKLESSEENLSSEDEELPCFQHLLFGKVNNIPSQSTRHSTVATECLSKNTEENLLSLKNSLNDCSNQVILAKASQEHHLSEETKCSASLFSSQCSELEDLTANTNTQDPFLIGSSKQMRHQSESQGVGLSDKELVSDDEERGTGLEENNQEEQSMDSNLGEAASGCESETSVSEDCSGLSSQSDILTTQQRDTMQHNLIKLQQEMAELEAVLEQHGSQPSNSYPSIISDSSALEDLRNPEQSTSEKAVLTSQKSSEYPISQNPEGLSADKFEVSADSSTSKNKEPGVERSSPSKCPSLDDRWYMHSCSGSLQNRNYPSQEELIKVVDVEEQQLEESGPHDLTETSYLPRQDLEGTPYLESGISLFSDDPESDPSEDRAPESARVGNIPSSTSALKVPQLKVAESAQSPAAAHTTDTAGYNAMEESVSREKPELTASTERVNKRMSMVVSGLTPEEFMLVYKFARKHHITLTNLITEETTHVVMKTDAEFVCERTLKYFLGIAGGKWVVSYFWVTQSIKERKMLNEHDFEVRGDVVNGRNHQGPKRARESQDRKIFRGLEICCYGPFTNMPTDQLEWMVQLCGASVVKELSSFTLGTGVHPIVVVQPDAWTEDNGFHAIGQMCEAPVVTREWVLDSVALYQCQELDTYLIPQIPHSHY
Turning to K1249R, the “effect of a mutation on the interaction” value is “with no effect”. With K1249Q, the “effect of a mutation on the interaction” value is recorded as “with no effect”.
